Laboratory results reported in patent US8673848 (Novartis, dated 2014).
Bridges are numbered along the chain shown (N, C = ends). Where no end group is shown, it is not given here. [ ]: non-standard residue; d: D form. The star is where a group is joined. Cha = N[C@@H](CC1CCCCC1)C(=O)O; pGlu = O=C1CC[C@@H](C(=O)O)N1; NHPhenethyl = c1ccc(CCN*)cc1; Nle = CCCC[C@H](N)C(=O)O; Aib = CC(C)(N)C(=O)O; Inp = O=C(O)C1CCNCC1

T1: human APJ receptor (hAPJ) (human, UniProt P35414 1-380)
T1 sequence (looked up): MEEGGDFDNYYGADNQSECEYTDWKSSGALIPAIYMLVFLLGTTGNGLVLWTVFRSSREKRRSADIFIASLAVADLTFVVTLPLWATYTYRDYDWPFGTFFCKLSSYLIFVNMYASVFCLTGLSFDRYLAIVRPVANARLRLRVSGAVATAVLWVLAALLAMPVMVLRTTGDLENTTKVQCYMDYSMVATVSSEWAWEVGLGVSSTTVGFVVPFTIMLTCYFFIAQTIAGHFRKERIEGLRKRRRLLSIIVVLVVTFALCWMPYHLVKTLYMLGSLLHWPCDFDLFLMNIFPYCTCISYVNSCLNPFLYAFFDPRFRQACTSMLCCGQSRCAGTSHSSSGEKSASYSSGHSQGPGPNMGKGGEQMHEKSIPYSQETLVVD

B1: Example 14: pE-R-P-R-Cha-C-H-K-G-P-Cha-C-F-OH (peptide)
peptide: [pGlu]RPR[Cha]CHKGP[Cha]CF-OH
modifications: disulfide 6-12
SMILES: N=C(N)NCCC[C@H](NC(=O)[C@@H]1CCCN1C(=O)[C@H](CCCNC(=N)N)NC(=O)[C@@H]1CCC(=O)N1)C(=O)N[C@@H](CC1CCCCC1)C(=O)N[C@H]1CSSC[C@@H](C(=O)N[C@@H](Cc2ccccc2)C(=O)O)NC(=O)[C@H](CC2CCCCC2)NC(=O)[C@@H]2CCCN2C(=O)CNC(=O)[C@H](CCCCN)NC(=O)[C@H](Cc2c[nH]cn2)NC1=O
B2: Example 1: pE-R-P-R-L-K-H-F-G-P-Nle-D-Phenethylamine (peptide)
peptide: [pGlu]RPRLKHFGP[Nle]D-NHPhenethyl
modifications: lactam 6-12
SMILES: CCCC[C@@H]1NC(=O)[C@@H]2CCCN2C(=O)CNC(=O)[C@H](Cc2ccccc2)NC(=O)[C@H](Cc2c[nH]cn2)NC(=O)[C@@H](NC(=O)[C@H](CC(C)C)NC(=O)[C@H](CCCNC(=N)N)NC(=O)[C@@H]2CCCN2C(=O)[C@H](CCCNC(=N)N)NC(=O)[C@@H]2CCC(=O)N2)CCCCNC(=O)C[C@@H](C(=O)NCCc2ccccc2)NC1=O
B3: Example 15: pE-R-P-R-L-C-F-K-G-P-Nle-C-F-OH (peptide)
peptide: [pGlu]RPRLCFKGP[Nle]CF-OH
modifications: disulfide 6-12
SMILES: CCCC[C@@H]1NC(=O)[C@@H]2CCCN2C(=O)CNC(=O)[C@H](CCCCN)NC(=O)[C@H](Cc2ccccc2)NC(=O)[C@@H](NC(=O)[C@H](CC(C)C)NC(=O)[C@H](CCCNC(=N)N)NC(=O)[C@@H]2CCCN2C(=O)[C@H](CCCNC(=N)N)NC(=O)[C@@H]2CCC(=O)N2)CSSC[C@@H](C(=O)N[C@@H](Cc2ccccc2)C(=O)O)NC1=O
B4: Example 10: pE-R-P-R-L-C-Aib-K-G-P-Nle-C-f-OH (peptide)
peptide: [pGlu]RPRLC[Aib]KGP[Nle]C[dF]-OH
modifications: disulfide 6-12
SMILES: CCCC[C@@H]1NC(=O)[C@@H]2CCCN2C(=O)CNC(=O)[C@H](CCCCN)NC(=O)C(C)(C)NC(=O)[C@@H](NC(=O)[C@H](CC(C)C)NC(=O)[C@H](CCCNC(=N)N)NC(=O)[C@@H]2CCCN2C(=O)[C@H](CCCNC(=N)N)NC(=O)[C@@H]2CCC(=O)N2)CSSC[C@@H](C(=O)N[C@H](Cc2ccccc2)C(=O)O)NC1=O
B5: Example 16: H-R-P-R-L-C-H-K-G-P-Nle-C-F-OH (peptide)
peptide: H-RPRLCHKGP[Nle]CF-OH
modifications: disulfide 5-11
SMILES: CCCC[C@@H]1NC(=O)[C@@H]2CCCN2C(=O)CNC(=O)[C@H](CCCCN)NC(=O)[C@H](Cc2c[nH]cn2)NC(=O)[C@@H](NC(=O)[C@H](CC(C)C)NC(=O)[C@H](CCCNC(=N)N)NC(=O)[C@@H]2CCCN2C(=O)[C@@H](N)CCCNC(=N)N)CSSC[C@@H](C(=O)N[C@@H](Cc2ccccc2)C(=O)O)NC1=O
B6: Example 11: p-Isn-R-P-R-L-C-Aib-K-G-P-Nle-C-f-OH (peptide)
peptide: [Inp]RPRLC[Aib]KGP[Nle]C[dF]-OH
modifications: disulfide 6-12; N-terminus assumed
SMILES: CCCC[C@@H]1NC(=O)[C@@H]2CCCN2C(=O)CNC(=O)[C@H](CCCCN)NC(=O)C(C)(C)NC(=O)[C@@H](NC(=O)[C@H](CC(C)C)NC(=O)[C@H](CCCNC(=N)N)NC(=O)[C@@H]2CCCN2C(=O)[C@H](CCCNC(=N)N)NC(=O)C2CCNCC2)CSSC[C@@H](C(=O)N[C@H](Cc2ccccc2)C(=O)O)NC1=O
B7: Example 13: pE-R-P-R-L-C-H-K-G-P-Nle-C-f-OH (peptide)
peptide: [pGlu]RPRLCHKGP[Nle]C[dF]-OH
modifications: disulfide 6-12
SMILES: CCCC[C@@H]1NC(=O)[C@@H]2CCCN2C(=O)CNC(=O)[C@H](CCCCN)NC(=O)[C@H](Cc2c[nH]cn2)NC(=O)[C@@H](NC(=O)[C@H](CC(C)C)NC(=O)[C@H](CCCNC(=N)N)NC(=O)[C@@H]2CCCN2C(=O)[C@H](CCCNC(=N)N)NC(=O)[C@@H]2CCC(=O)N2)CSSC[C@@H](C(=O)N[C@H](Cc2ccccc2)C(=O)O)NC1=O

Target: T1, human APJ receptor (hAPJ)
Assay: cell-based or functional assay

| Binder | hAPJ Ca2+ Flux EC50 [nM] |
| --- | --- |
| B1 | 8.83 |
| B2 | 90.1 |
| B3 | 3.53 |
| B4 | 2.54 |
| B5 | 1.43 |
| B6 | 3.52 |
| [pGlu]RPRLCHKGP[Nle]C-NHPhenethyl (disulfide 6-12) [Example 12: pE-R-P-R-L-C-H-K-G-P-Nle-C-Phenethylamine] | 2.07 |
| B7 | 2.26 |
